Substitutions are numbered along the chain they refer to.
T1: human Trophoblast cell surface antigen 2 (TROP2) (human, UniProt P09758 27-274, limits assumed)
T1 construct: Analyte in the SPR experiments and immunogen; also called human TROP2
T1 sequence: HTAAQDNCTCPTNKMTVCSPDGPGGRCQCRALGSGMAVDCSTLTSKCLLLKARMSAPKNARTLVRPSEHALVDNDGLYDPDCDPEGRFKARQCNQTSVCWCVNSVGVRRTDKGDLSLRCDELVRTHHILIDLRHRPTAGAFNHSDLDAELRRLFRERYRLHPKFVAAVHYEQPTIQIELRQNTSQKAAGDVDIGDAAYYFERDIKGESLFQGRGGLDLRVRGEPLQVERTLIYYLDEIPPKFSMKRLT

T2: TROP2 expressed on human cancer cell lines (human, UniProt P09758 27-323)
T2 construct: Endogenous TROP2 on human tumour cell lines; also called TROP2-expressing SKBR3 cells; HCC1954
T2 sequence: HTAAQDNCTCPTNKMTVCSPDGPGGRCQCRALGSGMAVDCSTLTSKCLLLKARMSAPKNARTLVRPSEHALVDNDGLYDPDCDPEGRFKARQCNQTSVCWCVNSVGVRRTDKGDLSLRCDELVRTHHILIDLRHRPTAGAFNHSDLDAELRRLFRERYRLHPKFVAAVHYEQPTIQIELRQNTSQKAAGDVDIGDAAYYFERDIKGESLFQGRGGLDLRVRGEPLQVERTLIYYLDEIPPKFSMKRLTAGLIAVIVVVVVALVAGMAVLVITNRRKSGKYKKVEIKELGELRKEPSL

B1: biosimilar of the anti-TROP2 antibody sacituzumab (antibody, INN chains, looked up, V domains shown)
VH: QVQLQQSGSELKKPGASVKVSCKASGYTFTNYGMNWVKQAPGQGLKWMGWINTYTGEPTYTDDFKGRFAFSLDTSVSTAYLQISSLKADDTAVYFCARGGFGSSYWYFDVWGQGSLVTVSS
VL: DIQLTQSPSSLSASVGDRVSITCKASQDVSIAVAWYQQKPGKAPKLLIYSASYRYTGVPDRFSGSGSGTDFTLTISSLQPEDFAVYYCQQHYITPLTFGAGTKVEIKR
modifications: biosimilar
B2: HC5/LC1 (antibody, human IgG1, kappa, V domains shown)
VH: EVQLVQSGAEVKKPGESLKISCKGSGYTFTDYSINWVRQMPGKGLEWMGVISTYYGDASYNQKFKGQVTISADKSISTAYLQWSSLKASDTAMYYCARYGDGYNQFDYWGQGTLVTVSS
VL: DIVMTQSPDSLAVSLGERATINCRVSESVDSYGNNFMHWYQQKPGQPPKLLIYRASNLESGVPDRFSGSGSGTDFTLTISSLQAEDVAVYYCQQSYEDPYTFGQGTKLEIKR
notes: Humanized anti-TROP2 antibody
B3: HC5/LC4 (antibody, human IgG1, kappa, V domains shown)
VH: B2 VH
VL: EIVLTQSPATLSLSPGERATLSCRVSESVDSYGNNFMHWYQQKPGQAPRLLIYRASNLESGIPARFSGSGSGTDFTLTISSLEPEDFAVYYCQQSYEDPYTFGGGTKVEIKR
notes: Humanized anti-TROP2 antibody
B4: anti-TROP2 antibody 1B3 (antibody, V domains shown)
VH: QVQLQQSGAELVRPGVSVKISCKGSGYTFTDYSINWVKQSHAKSLEWIGVISTYYGDASYNQKFKGKATMTVDKSSSTAYMELARLTSEDSAIYYCARYGDGYNQFDYWGQGTTLTVSS
VL: DIVLTQSPASLAVSLGQRATISCRVSESVDSYGNNFMHWYQQKPGQPPKLLIYRASNLESGVPARFSGSGSGTDFTLTINPMEADDVATYYCQQSYEDPYTFGGGTKLEIK
notes: Mouse anti-human TROP2 hybridoma antibody
B5: anti-TROP2 antibody 17B6 (antibody, V domains shown)
VH: QVQLQQSGAELVRPGVSVKISCKGSGYTFTDYGMNWVKQSHAKSLEWIGVISTFYGDANYNQKFKGKATMTVDKSSSTAYMELARLTSEDSAIYYCARRGNYDSMDYWGQGTSVTVSS
VL: B4 VL with A9V, S10F, V25A, N35S, V62I, G72R, M82V, A88E, Y100P, K111E
notes: as for B4
B6: anti-TROP2 antibody 15D9 (antibody, V domains shown)
VH: QVQLQQSGAELVRPGVSVKISCKGSGYTFTDYSIHWVKQSHAKSLEWIGVISSYYGDATYNQKFKGKATMTVDKSSSTAYMELARLTSEDSAIYYCALLGAYNYFDYWGQGTTLTVSS
VL: B4 VL with V25A, N35S, I52V, V62I, G72R, M82V, Y100P
notes: as for B4
B7: anti-TROP2 antibody 15A10 (antibody, V domains shown)
VH: EVQLEQSGPGLVQPSQSLSITCTVSGFSLTRYGVHWVRQSPGRSLEWLGVIWSGGNTDYNAAFISRLTITKDNSKSQVFFKMNSLQPNDTGVYYCAREDRYVGEFAYWGQGTLVTVSA
VL: B4 VL with P8T, V25A, N35S, M37I, V62I, G72R, M82V, Y96N, Y100R
notes: as for B4
B8: anti-TROP2 antibody 17D1 (antibody, V domains shown)
VH: B6 VH with V50L, S53T, N61T
VL: B4 VL with V25A, N35S, I52V, V62I, G72R, M82V, V87I, Y100P
notes: as for B4
B9: HC1/LC5 (antibody, human IgG1, kappa, V domains shown)
VH: QVQLVQSGAEVKKPGASVKVSCKASGYTFTDYSINWVRQAPGQGLEWMGVISTYYGDASYNQKFKGRVTMTTDTSTSTAYMELRSLRSDDTAVYYCARYGDGYNQFDYWGQGTMVTVSS
VL: DIQMTQSPSSLSASVGDRVTITCRVSESVDSYGNNFMHWYQQKPGKAPKLLIYRASNLESGVPSRFSGSGSGTDFTFTISSLQPEDIATYYCQQSYEDPYTFGGGTKLEIKR
notes: Humanized anti-TROP2 antibody; also called DP002-HC1LC5
B10: HC1/LC1 (antibody, human IgG1, kappa, V domains shown)
VH: B9 VH
VL: B2 VL
notes: Humanized anti-TROP2 antibody; also called DP002-HC1LC1
B11: HC4/LC5 (antibody, human IgG1, kappa, V domains shown)
VH: B9 VH with A16S, M70I, T72A, T74E, R84S, D89E, M114L
VL: B9 VL
notes: Humanized anti-TROP2 antibody; also called DP002-HC4LC5; DP002HC4LC5

Tests used:
[1] = biological target: human Trophoblast cell surface antigen 2 (TROP2) (human) (UniProt P09758); assay: SPR, TROP2 as analyte
[2] = biological target: T1, human Trophoblast cell surface antigen …; assay: SPR affinity ranking, human TROP2
[3] = biological target: T2, TROP2 expressed on human cancer cell …; assay: flow cytometry of SKBR3 cells after overnight incubation with the antibody pre-mixed with pHAb-labelled secondary antibody (internalization assay); x axis pHAb-A, y axis Count
Method: FACS experiments were performed to verify that antibodies 1B3, 15D9, 15A10, 17B6, and 17D1 were internalized by SKBR3 cells. SKBR3 is a TROP2-expressing human breast carcinoma cell line. Briefly, 1.2×10⁵ SKBR3 cells were seeded into each 12-well plates and cultured overnight. 300 μL of 20 nM control antibody, 1B3, 15D9, 15A10, 17B6, or 17D1 (in DMEM-10) were mixed with 300 μL 60 nM pHAb-labelled secondary antibody for 15 minutes at room temperature in the dark. The labeled antibodies mixtures were added to the SKBR3 cells and incubated overnight. Following overnight incubation, the SKBR3 cells were trypsinized, washed twice with 1% BSA/PBS, and analyzed via flow cytometry.

[4] = biological target: T1, human Trophoblast cell surface antigen …; assay: SPR, TROP2 as analyte
[5] = biological target: T2, TROP2 expressed on human cancer cell …; assay: cell-based or functional assay
[6] = biological target: T2, TROP2 expressed on human cancer cell …; assay: cell-based or functional assay; remark: listed apart in the source

Binder | Kd [2] [nM] | koff [2] [s⁻¹] | kon [2] [M⁻¹ s⁻¹] | binding result [3] | other results
B1 |  |  |  |  | Kd [1]: 0.4 nM; koff [1]: 0.000204 s⁻¹; kon [1]: 511000 M⁻¹ s⁻¹
B2 | 0.147 | 0.000235 | 1.6e+06 |  | 
B3 | 0.22 | 0.000299 | 1.36e+06 |  | 
B4 |  |  |  | binds | 
B5 |  |  |  | binds | 
B6 |  |  |  | binds | 
B7 |  |  |  | binds | 
B8 |  |  |  | binds | 
B9 | 0.107 | 0.000149 | 1.39e+06 |  | Kd [4]: 0.0577 nM; koff [4]: 0.000104 s⁻¹; kon [4]: 1.81e+06 M⁻¹ s⁻¹
B10 | 0.0645 | 0.000105 | 1.63e+06 |  | IC50 (nM), in vitro cytotoxicity, HCC38 cells [5]: > 100 nM; IC50 (nM), in vitro cytotoxicity, MDA-MB-468 cells [5]: > 100 nM; Kd [4]: 0.0662 nM; koff [4]: 0.00013 s⁻¹; kon [4]: 1.97e+06 M⁻¹ s⁻¹
B11 | 0.0801 | 0.000138 | 1.72e+06 |  | IC50 (nM), in vitro cytotoxicity, BxPC-3 cells [6]: > 100 nM; IC50 (nM), in vitro cytotoxicity, HCC1954 cells [6]: > 100 nM; IC50 (nM), in vitro cytotoxicity, NCI-N87 cells [6]: > 100 nM; Kd [4]: 0.0184 nM; koff [4]: 4.05e-05 s⁻¹; kon [4]: 2.2e+06 M⁻¹ s⁻¹

From patent publication US20220153862A1 (CSPC MEGALITH BIOPHARMACEUTICAL, published 2022)
